Experimental data reported in publication PMC7194921.

Target: SARS-CoV-2 N-NTD (WT) (SARS-CoV-2, UniProt P0DTC9 41-174)
Experiment: SPR

Binder: AAGUUCGUUU (ssRNA) [viral RNA derived intergenic sequence]
- Kd: 140 µM
